For test [1], the target named is pepAce2, carboxyfluorescein-labelled (S. cerevisiae). Nature of the test: fluorescence polarisation; direct titration: protein titrated into 20 nM carboxyfluorescein-labelled peptide; 20 mM Tris (pH 8.0), 100 mM NaCl, 0.05% Brij35P, 2 mM DTT; quadratic binding equation. Background: Fluorescence polarisation rises when a labelled molecule tumbles more slowly, as on binding a larger partner.

For test [2], the system named is Cbk1^251–756–Mob2 (T743E). Put plainly: Peptide kinase assay, WT Cbk1 (T743E). The format is biochemical, Saccharomyces cerevisiae. The following applies: for 32P incorporation into peptide, Average: Average of Rep 1-4, 100 μM peptide, 50 nM kinase, 40 μM ATP, 1 h. The method, then:
(§1) For peptide kinase assays, reactions were performed in the presence of 50 nM Cbk1^251–756–Mob2, 40 μM ATP, 2 mM DTT, 5 mM MnCl2, 2 μCi γ-^32P-ATP, and 100 μM Docktide ([…]) or AKAPtide ([…]). Reactions were initiated by the addition of ATP. Samples were quenched after 1 h by the addition of a 5-μl sample to P81 paper (Whatman) and subsequent submersion in 75 mM phosphoric acid to remove background γ-^32P-ATP. After drying, signal was determined by Čerenkov counting in an LS 6500 scintillation counter (Beckman). Counts per minute was efficiency corrected and converted to femtomoles ^32P followed by conversion to total ATP (labeled and unlabeled). Significance was determined by an unpaired two-tailed Student’s t-test.
(§2) Supplementary file pbio.1002146.s003.xlsx: S3 Data Enzymological characterization of the effects of Cbk1 docking. Assay data from experiments that used γ-^32P-ATP in protein kinase reactions with synthetic substrate peptides from Ssd1 that either contained both the core Cbk1 docking motif and a Cbk1 phosphorylation consensus motif (Docktide) or contained a core Cbk1 docking motif mutated to abrogate binding to the kinase and a Cbk1 consensus motif (AKAPtide). These kinase assays were performed either with Cbk1(T743E) or with Cbk1(Y687A/T743E). The latter construct carries a mutation that eliminates docking motif association with the kinase. (XLSX) Click here for additional data file.

A further test relates to Cbk1(Y687A/T743E). Put plainly: Peptide kinase assay, Cbk1(Y687A/T743E). Particulars: for 32P incorporation into peptide, Average: Average of Rep 1-4, 100 μM peptide, 50 nM kinase, 40 μM ATP, 1 h. The format is biochemical, Saccharomyces cerevisiae. The method, then: as §1, §2
The next test has as its system Cbk1–Mob2. Put plainly: In vitro pulldown of Cbk1–Mob2. The format is binding, Saccharomyces cerevisiae. The method, then: Cbk1 substrates containing the docking motifs or substrate sites were bacterially expressed as MBP or GST fusions. For pulldown assays, MBP-fusion lysates were incubated with amylose resin (New England Biolabs) on ice for 15 min, followed by washing with PBS (137 mM NaCl, 2.7 mM KCl, 4.3 mM Na2HPO4, 1.4 mM KH2PO4 [pH 7.3]). GST fusions were purified on glutathione Sepharose beads followed by dialysis into Cbk1 buffer.
MBP fusions were incubated on bead with 1 μM purified Cbk1 on ice for 15 min. Samples were washed 3× with PBS (transferred to fresh tube on last wash), resuspended in SDS-PAGE buffer, and separated by SDS-PAGE. Samples were directly visualized with GelCode Blue (Pierce) or transferred to PVDF membrane for immunoblotting. Cbk1 was detected using His or pS570 primary antibodies. For experiments detected using α-pS570, antibody signal with pure protein was analyzed to control for lot-dependent variations in expression as well as variations between Cbk1 mutants (no variations detected).

A further test has as its target T1, Cbk1^Δ730–756–Mob2 (Saccharomyces cerevisiae, UniProt P43563+P53894).
T1 construct: His6-Cbk1^251–756 was co-expressed with GST-Mob2 (full length or 45–287); His6 (N); made in house
Put plainly: biochemical. The class given is binding. From the text:
ND, not determined. […] (PDF) Click here for additional data file.

The target in another test is Cbk1(W444A)–Mob2 complex (S. cerevisiae, UniProt P53894 251-756; P43563 1-287, W444A). Put plainly: FP.
The target of another test is Cbk1(Y687A)–Mob2 complex (S. cerevisiae, UniProt P53894 251-756; P43563 1-287, Y687A). Nature of the test: FP.
Test [3] concerns the target T2, Cbk1^251–756–Mob2 complex (S. cerevisiae, UniProt P53894 251-756; P43563 1-287).
T2 chain 1: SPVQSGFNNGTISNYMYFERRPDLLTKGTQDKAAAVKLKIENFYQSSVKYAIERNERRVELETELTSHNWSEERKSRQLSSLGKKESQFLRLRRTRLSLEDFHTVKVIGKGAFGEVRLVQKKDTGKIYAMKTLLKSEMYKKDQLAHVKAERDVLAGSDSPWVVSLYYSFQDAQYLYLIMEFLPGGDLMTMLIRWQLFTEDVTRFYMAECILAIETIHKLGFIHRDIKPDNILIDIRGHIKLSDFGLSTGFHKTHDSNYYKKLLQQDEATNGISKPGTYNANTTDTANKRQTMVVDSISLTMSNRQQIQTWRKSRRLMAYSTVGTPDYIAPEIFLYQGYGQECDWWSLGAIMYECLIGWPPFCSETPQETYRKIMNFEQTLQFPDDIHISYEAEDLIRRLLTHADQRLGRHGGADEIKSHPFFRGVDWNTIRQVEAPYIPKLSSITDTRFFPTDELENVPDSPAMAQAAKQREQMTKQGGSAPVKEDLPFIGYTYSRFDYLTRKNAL
T2 chain 2: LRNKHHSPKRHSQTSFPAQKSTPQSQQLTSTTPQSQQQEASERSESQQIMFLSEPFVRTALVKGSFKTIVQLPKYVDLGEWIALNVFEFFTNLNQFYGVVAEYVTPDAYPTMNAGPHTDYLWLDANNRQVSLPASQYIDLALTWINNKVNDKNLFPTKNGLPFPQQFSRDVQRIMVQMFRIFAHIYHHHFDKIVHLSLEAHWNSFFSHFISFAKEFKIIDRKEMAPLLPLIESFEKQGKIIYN
Put plainly: FP.

The target of a further test is Cbk1(F447A)–Mob2 complex (S. cerevisiae, UniProt P53894 251-756; P43563 1-287, F447A). Nature of the test: FP.
The target of a further test is Cbk1(F699A)–Mob2 complex (S. cerevisiae, UniProt P53894 251-756; P43563 1-287, F699A). Nature of the test: FP.
For test [4], the target named is T3, Cbk1^352–756 kinase domain (S. cerevisiae, UniProt P53894 352-756).
T3 construct: source: bacterially expressed, purified (Ni-NTA, glutathione Sepharose); not shown: His6, C-terminal, kept
T3 sequence (looked up): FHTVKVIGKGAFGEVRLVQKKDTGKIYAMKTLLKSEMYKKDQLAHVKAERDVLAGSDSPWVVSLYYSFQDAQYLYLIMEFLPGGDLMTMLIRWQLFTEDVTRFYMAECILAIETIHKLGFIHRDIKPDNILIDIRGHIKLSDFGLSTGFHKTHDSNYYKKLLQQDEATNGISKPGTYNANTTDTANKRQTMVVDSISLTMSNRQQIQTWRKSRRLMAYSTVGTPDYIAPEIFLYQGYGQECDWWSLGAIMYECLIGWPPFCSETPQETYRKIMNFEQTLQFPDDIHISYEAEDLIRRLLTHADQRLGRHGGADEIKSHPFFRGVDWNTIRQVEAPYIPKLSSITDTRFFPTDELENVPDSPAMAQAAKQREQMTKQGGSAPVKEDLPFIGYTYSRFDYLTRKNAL
Put plainly: pull-down; pull-down of Cbk1^352–756 by bead-bound Ace2 or Ssd1 docking motifs in competition with unbound Ace2^270–290. The following applies: both partners purified.

Non-standard residues stand in square brackets, D forms with d. Residues, ends and D or L forms follow the SMILES beside them. No end group written: not given here. carboxyfluorescein = carboxyfluorescein label; pT = C[C@@H](OP(=O)(O)O)[C@H](N)C(=O)O

8 molecules from publication PMC4428629, “The Structure of an NDR/LATS Kinase–Mob Complex Reveals a Novel Kinase–Coactivator System and Substrate Docking Mechanism” (PLoS Biology, 2015) can be followed below.

Sequence of Cbk1(Y687A)–Mob2 complex (P53894 251-756 Y687A, chain 1 of 2, one chain of several): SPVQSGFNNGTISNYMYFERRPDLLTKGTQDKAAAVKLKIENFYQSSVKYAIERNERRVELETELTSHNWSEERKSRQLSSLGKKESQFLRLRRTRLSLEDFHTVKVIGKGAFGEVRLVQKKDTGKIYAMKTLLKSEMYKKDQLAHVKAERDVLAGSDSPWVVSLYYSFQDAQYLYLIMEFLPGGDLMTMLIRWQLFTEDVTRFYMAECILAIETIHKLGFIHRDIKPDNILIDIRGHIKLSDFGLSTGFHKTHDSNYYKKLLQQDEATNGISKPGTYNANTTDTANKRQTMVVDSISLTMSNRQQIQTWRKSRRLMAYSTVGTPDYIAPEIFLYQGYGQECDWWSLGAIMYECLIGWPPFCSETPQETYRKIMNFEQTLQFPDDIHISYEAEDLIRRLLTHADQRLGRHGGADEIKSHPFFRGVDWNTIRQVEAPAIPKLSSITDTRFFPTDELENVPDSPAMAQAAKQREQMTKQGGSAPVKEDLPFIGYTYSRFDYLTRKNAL
Sequence of Cbk1(W444A)–Mob2 complex (P53894 251-756 W444A, chain 1 of 2, one chain of several): as the sequence (P53894 251-756 Y687A, chain 1 of 2, one chain of several) above, with W194A, A437Y counted along it
Sequence of Cbk1(F447A)–Mob2 complex (P53894 251-756 F447A, chain 1 of 2, one chain of several): as the sequence (P53894 251-756 Y687A, chain 1 of 2, one chain of several) above, with F197A, A437Y counted along it
T1 sequence (P43563 whole entry, stated change not applied, one chain of several): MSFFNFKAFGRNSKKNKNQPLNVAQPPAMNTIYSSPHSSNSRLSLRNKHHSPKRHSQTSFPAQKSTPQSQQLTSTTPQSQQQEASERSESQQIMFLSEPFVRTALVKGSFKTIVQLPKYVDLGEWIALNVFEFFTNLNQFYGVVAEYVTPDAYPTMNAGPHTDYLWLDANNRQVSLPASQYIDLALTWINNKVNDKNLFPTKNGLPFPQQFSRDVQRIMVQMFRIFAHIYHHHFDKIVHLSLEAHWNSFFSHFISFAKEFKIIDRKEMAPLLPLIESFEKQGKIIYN

For “Cbk1^251–756–Mob2 complex (from UniProt P53894 251-756; P43563 1-287)”, the Kd in [1] was 6 µM. This counts as single-digit micromolar.

Consider “CDFKFPPPPNAHGGHRRATSN [Docktide, Ssd1 (210–229)-based peptide with docking motif FKFP and Cbk1 consensus site]”, for which the “32P incorporation into peptide, Average” value in test [2] was 76.8 fmol; in the test with Cbk1(Y687A/T743E) it was 45.9 fmol. Further, the figures for the “effect of WT docking motif on phosphorylation” value (in [2] (relative to peptide with mutant docking motif (AKAPtide)); in the test on Cbk1(Y687A/T743E) (Cbk1(Y687A))) were “enhances phosphorylation by WT Cbk1” and “loses this enhancement”, respectively.

As to “CDAKAPPPPNAHGGHRRATSN [AKAPtide, Ssd1-based peptide with mutated docking motif AKAP and Cbk1 consensus site]”, the “32P incorporation into peptide, Average” value in test [2] was 57.4 fmol; in the test on Cbk1(Y687A/T743E), 45.5 fmol.

For “Ssd1^208–214: Ssd1 docking fragment used for Cbk1 pulldown (QSDFKFP; UniProt P24276 208-214, looked up, fragment)”, the figures for the Cbk1 pulldown result in the test on Cbk1–Mob2 (Cbk1 F699A mutant (Fig 5B)) and in the test on Cbk1–Mob2 (Cbk1 Y687A mutant (Fig 5B)) were “not nearby F699A abrogate Cbk1 pulldown” and “abrogate Cbk1 pulldown”, respectively.

On to `CC[C@H](C)[C@H](N)C(=O)NCC(=O)N[C@@H](Cc1ccc(O)cc1)C(=O)N[C@H](C(=O)N[C@@H](Cc1ccc(O)cc1)C(=O)N[C@@H](CO)C(=O)N[C@@H](CCCNC(=N)N)C(=O)N[C@@H](Cc1ccccc1)C(=O)N[C@@H](CC(=O)O)C(=O)N[C@@H](Cc1ccc(O)cc1)C(=O)O)[C@@H](C)O` [pepHM] (H-IGYTYSRFDY-OH), for which, at Cbk1^Δ730–756–Mob2, the Kd was ~33 µM.

B1: pepHM-P, carboxyfluorescein-labelled (peptide)
peptide: IGY[pT]YSRFDY-carboxyfluorescein
Turning to B1, the Kd with Cbk1(W444A)–Mob2 complex came to 24 µM; with Cbk1(Y687A)–Mob2 complex it was 22 µM; in test [3], 20 µM; with Cbk1(F447A)–Mob2 complex, 33 µM; with Cbk1(F699A)–Mob2 complex, 28 µM.

B2: pepSSD1, carboxyfluorescein-labelled (peptide)
peptide: carboxyfluorescein-TTEQSDFKFP
In the case of B2, the equilibrium dissociation constant (Kd) was 58 µM with Cbk1(W444A)–Mob2 complex, 36 µM in the test with Cbk1(Y687A)–Mob2 complex, 6 µM in [3] and 4.9 µM with Cbk1(F699A)–Mob2 complex.

B3: unbound Ace2^270–290 (domain or fragment, S. cerevisiae, UniProt P21192 270-290, looked up)
chain: NAIIVTTNSANGGYQFPPPTL
With B3, in test [4], the binding result is given as “binds”.

Usually Kd stands for the free concentration of one partner at which half of the binding sites on the other are occupied at equilibrium, for simple one-to-one binding. Lower therefore signals a tighter complex.
